What was measured:
[1] = biological target: T1, hOrai1-mOrai1 ECL2 (…) protein (human/mouse chimera, UniProt Q96D31 1-301); assay: FACS, 293EBNA, RFI-POC grade; set-up: concentration or dose not given beside the values
T1 construct: also called Ch
T1 sequence (Q96D31 other isoform, or with tags, fused parts or gaps): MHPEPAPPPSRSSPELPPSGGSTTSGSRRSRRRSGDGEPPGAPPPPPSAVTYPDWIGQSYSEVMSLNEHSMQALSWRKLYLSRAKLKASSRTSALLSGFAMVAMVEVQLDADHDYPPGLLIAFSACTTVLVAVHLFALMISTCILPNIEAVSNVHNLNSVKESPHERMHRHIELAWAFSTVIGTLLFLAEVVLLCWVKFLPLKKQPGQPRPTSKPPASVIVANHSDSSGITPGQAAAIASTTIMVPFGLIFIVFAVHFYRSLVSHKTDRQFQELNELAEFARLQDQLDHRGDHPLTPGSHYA

[2] = biological target: T2, hOrai1-mOrai1 ECL2 (SKPPA) protein (human/mouse chimera, UniProt Q96D31 1-301); assay: FACS, 293EBNA, RFI-POC grade; set-up: concentration or dose not given beside the values
T2 construct: also called Ch

[3] = biological target: T3, mOrai1-hOrai1 ECL2 chimeric protein (human/mouse chimera, UniProt Q8BWG9 1-304 (mouse entry)); assay: FACS, 293EBNA, RFI-POC grade; set-up: concentration or dose not given beside the values
T3 construct: mouse Orai1 with human ECL2; also called Ch

[4] = biological target: T4, hOrai1-mOrai1 ECL2 (RPTSKPPA) protein (human/mouse chimera, UniProt Q96D31 1-301); assay: FACS, 293EBNA, RFI-POC grade; set-up: concentration or dose not given beside the values
T4 construct: also called Ch

[5] = biological target: T5, hOrai1-mOrai1 ECL2 (…) protein (human/mouse chimera, UniProt Q96D31 1-301); assay: FACS, 293EBNA, RFI-POC grade; set-up: concentration or dose not given beside the values; remark: listed apart in the source
T5 construct: also called Ch
T5 sequence (Q96D31 other isoform, or with tags, fused parts or gaps): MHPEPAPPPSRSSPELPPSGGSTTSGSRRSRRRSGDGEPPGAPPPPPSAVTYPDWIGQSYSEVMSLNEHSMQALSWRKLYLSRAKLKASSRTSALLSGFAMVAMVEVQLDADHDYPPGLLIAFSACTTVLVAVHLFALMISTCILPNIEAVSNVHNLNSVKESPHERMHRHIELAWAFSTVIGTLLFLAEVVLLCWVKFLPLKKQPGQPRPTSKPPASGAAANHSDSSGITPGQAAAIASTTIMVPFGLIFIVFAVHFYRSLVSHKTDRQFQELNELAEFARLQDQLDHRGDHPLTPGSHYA

[6] = biological target: T6, hOrai1-mOrai1 ECL2 (…) protein (human/mouse chimera, UniProt Q96D31 1-301); assay: FACS, 293EBNA, RFI-POC grade; set-up: concentration or dose not given beside the values; remark: listed apart in the source
T6 construct: also called Ch
T6 sequence (Q96D31 other isoform, or with tags, fused parts or gaps): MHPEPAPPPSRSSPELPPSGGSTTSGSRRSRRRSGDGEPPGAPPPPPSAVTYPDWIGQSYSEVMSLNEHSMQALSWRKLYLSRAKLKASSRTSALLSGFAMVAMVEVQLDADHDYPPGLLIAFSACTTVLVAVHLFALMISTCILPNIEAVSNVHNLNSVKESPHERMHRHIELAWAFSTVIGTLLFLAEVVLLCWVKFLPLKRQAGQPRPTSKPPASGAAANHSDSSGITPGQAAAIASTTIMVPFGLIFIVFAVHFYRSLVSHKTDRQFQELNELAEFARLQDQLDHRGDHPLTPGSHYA

[7] = biological target: T7, hOrai1-mOrai1 ECL2 chimeric protein (human/mouse chimera, UniProt Q96D31 1-301); assay: FACS, 293EBNA; set-up: concentration or dose not given beside the values
T7 construct: human Orai1 with mouse ECL2; also called Ch
Description: (§1) FIG. 16A-D illustrates the results of FACS analysis showing binding to the indicated mOrai1-hOrai1 ECL2 chimeric mutants expressed on the surface of HEK-293-EBNA cells. Transfected cells were stained first with recombinant monoclonal antibodies then counter-stained with a secondary phycoerythrin-labeled goat (“Gt”) anti-human (“Hu”) IgG F(ab′)₂ antibody fragment and visualized using FACS. In FIG. 16B and FIG. 16D, The values of Relative Fluorescence Intensity as Percent of Control (RFI-POC) are calculated from the relative fluorescence intensity geometric mean (Geo Mean). The geometric mean is an average calculated by multiplying a series of numbers and taking the nth root where n is the number of numbers in the series. It is a statistical average of a set of transformed numbers often used to represent a central tendency in a highly variable data set that minimizes the effects of extreme values.
(§2) Table 11A and Table 11B feature a schematic representation of the POC data from FIG. 16B and FIG. 16D, respectively, where the binding results are recorded as (+++) denoting binding POC from 40% to 100%, (++) for POC of 5% to less than 40%, (+) for POC from 1% to less than 5% and (−) as lack of binding with POC less than 1%.

[8] = biological target: T8, mOrai1-hOrai1 ECL2 (…) protein (human/mouse chimera, UniProt Q8BWG9 1-304 (mouse entry)); assay: FACS, 293EBNA; set-up: concentration or dose not given beside the values
T8 construct: also called Ch
Description: as §1, §2
T8 sequence (Q8BWG9 other isoform, or with tags, fused parts or gaps): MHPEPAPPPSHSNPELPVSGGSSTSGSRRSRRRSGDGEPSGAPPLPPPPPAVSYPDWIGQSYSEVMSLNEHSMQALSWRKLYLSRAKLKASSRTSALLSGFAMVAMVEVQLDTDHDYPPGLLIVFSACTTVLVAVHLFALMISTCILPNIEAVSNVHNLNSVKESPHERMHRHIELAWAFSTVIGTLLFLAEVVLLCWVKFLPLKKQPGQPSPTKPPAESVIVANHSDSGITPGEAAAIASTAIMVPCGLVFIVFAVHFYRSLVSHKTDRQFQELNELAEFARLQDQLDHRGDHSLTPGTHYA

[9] = biological target: T9, mOrai1-hOrai1 ECL2 (…) protein (human/mouse chimera, UniProt Q8BWG9 1-304 (mouse entry)); assay: FACS, 293EBNA; set-up: concentration or dose not given beside the values; remark: listed apart in the source
T9 construct: also called Ch
Description: as §1, §2
T9 sequence (Q8BWG9 other isoform, or with tags, fused parts or gaps): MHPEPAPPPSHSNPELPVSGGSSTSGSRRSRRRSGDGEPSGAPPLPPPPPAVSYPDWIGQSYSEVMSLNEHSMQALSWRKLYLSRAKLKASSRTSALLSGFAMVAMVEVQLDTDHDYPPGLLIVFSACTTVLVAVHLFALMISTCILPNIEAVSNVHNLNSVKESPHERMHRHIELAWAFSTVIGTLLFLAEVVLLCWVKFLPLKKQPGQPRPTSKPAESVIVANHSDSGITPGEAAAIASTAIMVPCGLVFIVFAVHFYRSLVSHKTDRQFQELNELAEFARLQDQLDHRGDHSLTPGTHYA

[10] = biological target: T10, mOrai1-hOrai1 ECL2 (…) protein (human/mouse chimera, UniProt Q8BWG9 1-304 (mouse entry)); assay: FACS, 293EBNA; set-up: concentration or dose not given beside the values; remark: listed apart in the source
T10 construct: also called Ch
Description: as §1, §2
T10 sequence (Q8BWG9 other isoform, or with tags, fused parts or gaps): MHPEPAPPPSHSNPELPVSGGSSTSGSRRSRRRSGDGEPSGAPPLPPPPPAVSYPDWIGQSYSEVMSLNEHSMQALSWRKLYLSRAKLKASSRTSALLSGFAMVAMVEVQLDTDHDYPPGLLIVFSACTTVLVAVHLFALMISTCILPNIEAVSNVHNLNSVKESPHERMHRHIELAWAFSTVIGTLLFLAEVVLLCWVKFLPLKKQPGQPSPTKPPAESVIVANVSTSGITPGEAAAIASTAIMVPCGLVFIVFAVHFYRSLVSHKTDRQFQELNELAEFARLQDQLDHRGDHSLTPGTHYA

[11] = biological target: T11, mOrai1-hOrai1 ECL2 (AESVIV) protein (human/mouse chimera, UniProt Q8BWG9 1-304 (mouse entry)); assay: FACS, 293EBNA; set-up: concentration or dose not given beside the values
T11 construct: also called Ch
Description: as §1, §2

[12] = biological target: T12, mOrai1-hOrai1 ECL2 (SPTKPPAE) protein (human/mouse chimera, UniProt Q8BWG9 1-304 (mouse entry)); assay: FACS, 293EBNA; set-up: concentration or dose not given beside the values
T12 construct: also called Ch
Description: as §1, §2

[13] = biological target: T13, mOrai1-hOrai1 ECL2 (…) protein (human/mouse chimera, UniProt Q8BWG9 1-304 (mouse entry)); assay: FACS, 293EBNA; set-up: concentration or dose not given beside the values; remark: listed apart in the source
T13 construct: also called Ch
Description: as §1, §2
T13 sequence (Q8BWG9 other isoform, or with tags, fused parts or gaps): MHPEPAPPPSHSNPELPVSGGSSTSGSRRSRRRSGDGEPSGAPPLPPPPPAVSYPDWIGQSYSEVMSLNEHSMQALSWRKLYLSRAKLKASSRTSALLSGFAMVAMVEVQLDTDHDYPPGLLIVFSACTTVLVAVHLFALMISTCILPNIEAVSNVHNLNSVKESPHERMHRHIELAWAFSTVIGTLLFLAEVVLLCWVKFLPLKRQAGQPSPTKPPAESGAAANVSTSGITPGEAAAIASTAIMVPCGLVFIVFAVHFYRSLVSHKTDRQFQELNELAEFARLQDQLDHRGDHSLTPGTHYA

[14] = biological target: T14, mOrai1-hOrai1 ECL2 (KPPAE) protein (human/mouse chimera, UniProt Q8BWG9 1-304 (mouse entry)); assay: FACS, 293EBNA; set-up: concentration or dose not given beside the values
T14 construct: also called Ch
Description: as §1, §2

[15] = biological target: T8, mOrai1-hOrai1 ECL2 (…) protein; assay: flow cytometry on HEK-293 cells transfected with the chimera (loss of binding experiment)
[16] = biological target: T9, mOrai1-hOrai1 ECL2 (…) protein; assay: as above; remark: listed apart in the source
[17] = biological target: T10, mOrai1-hOrai1 ECL2 (…) protein; assay: as above; remark: listed apart in the source
[18] = biological target: T11, mOrai1-hOrai1 ECL2 (AESVIV) protein; assay: as above
[19] = biological target: T12, mOrai1-hOrai1 ECL2 (SPTKPPAE) protein; assay: as above
[20] = biological target: T13, mOrai1-hOrai1 ECL2 (…) protein; assay: as above; remark: listed apart in the source
[21] = biological target: T14, mOrai1-hOrai1 ECL2 (KPPAE) protein; assay: as above
[22] = biological target: T15, mOrai1-hOrai1 ECL2 (HSD) protein (human/mouse chimera, UniProt Q8BWG9 1-304 (mouse entry)); assay: FACS, 293EBNA, RFI-POC grade; set-up: concentration or dose not given beside the values
T15 construct: also called Ch
Outline: (§3)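 HEK-293-EBNA cells expressing mOrai1-hOrai1 ECL2 chimeric mutants stained with recombinant monoclonal antibodies, then PE-labelled goat anti-human IgG F(ab′)2, and analysed by FACS. RFI-POC derived from geometric mean fluorescence; graded +++ (40–100%), ++ (5–<40%), + (1–<5%), − (<1%).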

[23] = biological target: T3, mOrai1-hOrai1 ECL2 chimeric protein; assay: FACS, 293EBNA, RFI-POC grade; set-up: concentration or dose not given beside the values; remark: listed apart in the source
Outline: as §3

T14 sequence (Q8BWG9 other isoform, or with tags, fused parts or gaps): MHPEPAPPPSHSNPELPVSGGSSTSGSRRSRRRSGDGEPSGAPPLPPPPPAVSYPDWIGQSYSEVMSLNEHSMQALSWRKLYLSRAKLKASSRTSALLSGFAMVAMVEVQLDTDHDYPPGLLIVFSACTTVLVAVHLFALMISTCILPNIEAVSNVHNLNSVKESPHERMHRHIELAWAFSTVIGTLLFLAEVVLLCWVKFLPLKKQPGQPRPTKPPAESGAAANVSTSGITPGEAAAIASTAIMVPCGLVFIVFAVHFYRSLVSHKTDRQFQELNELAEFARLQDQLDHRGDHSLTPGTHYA
T12 sequence (Q8BWG9 other isoform, or with tags, fused parts or gaps): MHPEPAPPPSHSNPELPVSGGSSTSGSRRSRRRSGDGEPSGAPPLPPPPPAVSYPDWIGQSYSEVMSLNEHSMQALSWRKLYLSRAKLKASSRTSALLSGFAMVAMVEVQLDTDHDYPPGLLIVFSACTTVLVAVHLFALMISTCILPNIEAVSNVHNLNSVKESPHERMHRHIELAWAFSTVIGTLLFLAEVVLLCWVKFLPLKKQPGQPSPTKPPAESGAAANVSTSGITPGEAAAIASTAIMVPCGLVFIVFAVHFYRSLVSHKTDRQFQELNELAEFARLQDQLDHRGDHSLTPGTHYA
T3 sequence (Q8BWG9 other isoform, or with tags, fused parts or gaps mutant): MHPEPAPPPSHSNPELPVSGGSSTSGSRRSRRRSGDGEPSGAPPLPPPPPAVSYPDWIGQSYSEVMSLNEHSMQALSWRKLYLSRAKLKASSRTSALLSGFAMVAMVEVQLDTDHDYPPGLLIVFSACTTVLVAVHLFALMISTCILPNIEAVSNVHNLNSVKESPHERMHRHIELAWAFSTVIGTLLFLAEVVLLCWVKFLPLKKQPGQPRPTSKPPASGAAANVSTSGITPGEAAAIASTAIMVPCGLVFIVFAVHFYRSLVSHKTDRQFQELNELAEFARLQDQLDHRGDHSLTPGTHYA
T11 sequence (Q8BWG9 other isoform, or with tags, fused parts or gaps): as the sequence (Q8BWG9 other isoform, or with tags, fused parts or gaps mutant) above, with P218A, A219E, G221V, A222I, A223V counted along it
T2 sequence (Q96D31 other isoform, or with tags, fused parts or gaps): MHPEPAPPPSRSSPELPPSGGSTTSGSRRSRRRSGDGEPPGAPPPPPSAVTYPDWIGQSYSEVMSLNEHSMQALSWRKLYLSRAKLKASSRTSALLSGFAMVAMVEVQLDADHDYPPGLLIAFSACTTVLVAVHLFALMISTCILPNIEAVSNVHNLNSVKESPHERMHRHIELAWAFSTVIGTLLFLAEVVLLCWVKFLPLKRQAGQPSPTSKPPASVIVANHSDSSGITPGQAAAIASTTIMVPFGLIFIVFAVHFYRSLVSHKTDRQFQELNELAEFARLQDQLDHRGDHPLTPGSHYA
T7 sequence (Q96D31 other isoform, or with tags, fused parts or gaps mutant): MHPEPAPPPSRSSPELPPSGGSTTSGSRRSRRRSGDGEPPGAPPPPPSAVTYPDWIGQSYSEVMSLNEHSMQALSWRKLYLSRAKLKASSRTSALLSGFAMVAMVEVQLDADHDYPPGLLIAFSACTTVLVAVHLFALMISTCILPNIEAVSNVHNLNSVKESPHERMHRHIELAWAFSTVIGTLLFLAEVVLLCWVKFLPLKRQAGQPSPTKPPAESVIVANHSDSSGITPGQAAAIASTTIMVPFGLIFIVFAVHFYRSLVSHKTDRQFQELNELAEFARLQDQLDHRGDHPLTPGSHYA
T15 sequence (Q8BWG9 other isoform, or with tags, fused parts or gaps): as the sequence (Q8BWG9 other isoform, or with tags, fused parts or gaps mutant) above, with V226H, T228D counted along it
T4 sequence (Q96D31 other isoform, or with tags, fused parts or gaps): as the sequence (Q96D31 other isoform, or with tags, fused parts or gaps mutant) above, with S210R, K213S, P214K, A216P, E217A counted along it

| percent of control (POC) of FACS Geo Mean [1] [%] | percent of control (POC) of FACS Geo Mean [2] [%] | percent of control (POC) of FACS Geo Mean [3] [%] | percent of control (POC) of FACS Geo Mean [4] [%] | percent of control (POC) of FACS Geo Mean [5] [%] | percent of control (POC) of FACS Geo Mean [6] [%] | POC (percent of control, FACS Geo Mean relative to binding to Ch. 1) [7] [%] | POC (percent of control, FACS Geo Mean relative to binding to Ch. 1) [8] [%] | POC (percent of control, FACS Geo Mean relative to binding to Ch. 1) [9] [%] | POC (percent of control, FACS Geo Mean relative to binding to Ch. 1) [10] [%] | POC (percent of control, FACS Geo Mean relative to binding to Ch. 1) [11] [%] | POC (percent of control, FACS Geo Mean relative to binding to Ch. 1) [12] [%] | POC (percent of control, FACS Geo Mean relative to binding to Ch. 1) [13] [%] | POC (percent of control, FACS Geo Mean relative to binding to Ch. 1) [14] [%] | binding result [15] | binding result [16] | binding result [17] | binding result [18] | binding result [19] | binding result [20] | Binder | further results |
| --- | --- | --- | --- | --- | --- | --- | --- | --- | --- | --- | --- | --- | --- | --- | --- | --- | --- | --- | --- | --- | --- |
| 40 to 100 | 40 to 100 | 40 to 100 | 40 to 100 | 40 to 100 | 40 to 100 | < 1 | < 1 | < 1 | < 1 | < 1 | < 1 | < 1 | < 1 | no binding | no binding | no binding | no binding | no binding | no binding | mAb 5A1.1 (antibody, human IgG2, fully human, Campaign 2; lambda CL-1) heavy: QVQLVQSGAEVKKPGASVKVPCKASGYTFTDYYINWVRQAPGQGLEWMGWINPNNGGTNYAQKFQGRVTMTRDTSISTAYMELRRLRSDDTAVYYCARERGGYEDWFDPWGQGTLVTVSSASTKGPSVFPLAPCSRSTSESTAALGCLVKDYFPEPVTVSWNSGALTSGVHTFPAVLQSSGLYSLSSVVTVPSSNFGTQTYTCNVDHKPSNTKVDKTVERKCCVECPPCPAPPVAGPSVFLFPPKPKDTLMISRTPEVTCVVVDVSHEDPEVQFNWYVDGVEVHNAKTKPREEQFNSTFRVVSVLTVVHQDWLNGKEYKCKVSNKGLPAPIEKTISKTKGQPREPQVYTLPPSREEMTKNQVSLTCLVKGFYPSDIAVEWESNGQPENNYKTTPPMLDSDGSFFLYSKLTVDKSRWQQGNVFSCSVMHEALHNHYTQKSLSLSPGK VL: QSVLTQPPSVSGAPGQRVTISCTGSSSNIGAGFDVHWYQQLPVTAPKLLIYGNRNRPSGVPARFSGSKSGTSASLAITGLQAEDEAVYYCQSYDSSLTVFGGGTKLTVL | binding result [21]: no binding; POC (percent of control, FACS Geo Mean relative to binding to Ch. 1) [22]: 40 to 100%; POC (percent of control, FACS Geo Mean relative to binding to Ch. 1) [23]: 40 to 100% |
| 40 to 100 | 5 to 40 | 40 to 100 | 40 to 100 | 40 to 100 | 40 to 100 | < 1 | < 1 | < 1 | < 1 | < 1 | < 1 | < 1 | < 1 | no binding | no binding | no binding | no binding | no binding | no binding | mAb 5B5.2 (antibody, human IgG2, lambda, V domains shown, fully human IgG2 lambda, Campaign 2; same chains as 5B5.1) VH: QVQLVQSGAEVKKPGASVKVSCKASGYTFTDYYINWVRQAPGQGLEWMGWINPNSGGTDYAQKFQGRVTMTRDTSIRTAYMELNRLTSDDTAVYYCAREYGGYEDWFDPWGQGTLVTVSS VL: QSVLTQPPSVSGAPGQRVTISCTGSNSNIGAGFDVHWYQQLPGTVPKLLIYGNNNRPSGVPDRFSGSKSGTSASLAITGLQAEDEADYYCQSYDSRLTVFGGGTKLTVLG | binding result [21]: no binding; POC (percent of control, FACS Geo Mean relative to binding to Ch. 1) [22]: 40 to 100%; POC (percent of control, FACS Geo Mean relative to binding to Ch. 1) [23]: 40 to 100% |
